Test results: patent US20210220451A1
Where two headings read alike, the source gives them in different places.

What was measured:
[1] = molecular target: 33-mer toxic gluten peptide from alpha-gliadin; assay: cell-based or functional assay
[2] = system: T1, 33-mer toxic gluten peptide from alpha-gliadin
T1 sequence: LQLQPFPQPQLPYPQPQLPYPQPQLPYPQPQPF

[3] = molecular target: T2, 33-mer toxic gluten peptide from alpha-gliadin
T2 chain: T1 sequence

**Q.** With “high molecular weight fraction (>approx. 10 kDa) of Nepenthes extract (fluid)” as the molecule, how does the Relative Peak Area (%) of undigested 33-mer by LC-MS after 0.5 h at 100:1 substrate:enzyme, percent of the control without enzyme [1] read?
**A.** Its Relative Peak Area (%) of undigested 33-mer by LC-MS after 0.5 h at 100:1 substrate:enzyme, percent of the control without enzyme is 0%.

**Q.** pepsin was tested. Which Relative Peak Area (%) of undigested 33-mer by LC-MS after 0.5 h at 100:1 substrate:enzyme, percent of the control without enzyme [2] did it give?
**A.** Its Relative Peak Area (%) of undigested 33-mer by LC-MS after 0.5 h at 100:1 substrate:enzyme, percent of the control without enzyme is 93.2%.

B1: recombinant nepenthesin I (from N. gracilis, acid-activated) (protein)
chain: APTHSTSRTALNHRHEAKVTGFQIMLEHVDSGKNLTKFQLLERAIERGSRRLQRLEAMLNGPSGVETSVYAGDGEYLMNLSIGTPAQPFSAIMDTGSDLIWTQCQPCTQCFNQSTPIFNPQGSSSFSTLPCSSQLCQALSSPTCSNNFCQYTYGYGDGSETQGSMGTETLTFGSVSIPNITFGCGENNQGFGQGNGAGLVGMGRGPLSLPSQLDVTKFSYCMTPIGSSTPSNLLLGSLANSVTAGSPNTTLIQSSQIPTFYYITLNGLSVGSTRLPIDPSAFALNSNNGTGGIIIDSGTTLTYFVNNAYQSVRQEFISQINLPVVNGSSSGFDLCFQTPSDPSNLQIPTFVMHFDGGDLELPSENYFISPSNGLICLAMGSSSQGMSIFGNIQQ
**Q.** For B1, which Relative Peak Area (%) of undigested 33-mer by LC-MS after 0.5 h at 100:1 substrate:enzyme, percent of the control without enzyme [3] is on record?
**A.** Its Relative Peak Area (%) of undigested 33-mer by LC-MS after 0.5 h at 100:1 substrate:enzyme, percent of the control without enzyme is 78.7%.

B2: recombinant nepenthesin II (from N. gracilis, acid-activated) (protein)
chain: QSSSGIETPVYAGDGEYLMNVAIGTPDSSFSAIMDTGSDLIWTQCEPCTQCFSQPTPIFNPQDSSSFSTLPCESQYCQDLPSETCNNNECQYTYGYGDGSTTQGYMATETFTFETSSVPNIAFGCGEDNQGFGQGNGAGLIGMGWGPLSLPSQLGVGQFSYCMTSYGSSSPSTLALGSAASGVPEGSPSTTLIHSSLNPTYYYITLQGITVGGDNLGIPSSTFQLQDDGTGGMIIDSGTTLTYLPQDAYNAVAQAFTDQINLPTVDESSSGLSTCFQQPSDGSTVQVPEISMQFDGGVLNLGEQNILISPAEGVICLAMGSSSQLGISIFGNIQQQETQVLYDLQNLAVSFVPTQCGAS
**Q.** How did the Relative Peak Area (%) of undigested 33-mer by LC-MS after 0.5 h at 100:1 substrate:enzyme, percent of the control without enzyme [3] turn out when B2 was run?
**A.** Its Relative Peak Area (%) of undigested 33-mer by LC-MS after 0.5 h at 100:1 substrate:enzyme, percent of the control without enzyme is 34%.
